Experimental findings from patent US20080181887A1 are described below.

For this test, the target named is human FcRn (human). The test can be described thus: BIAcore SPR, soluble IgG over immobilized human FcRn, pH 6.0; reference purified cynomolgus monkey IgG.
Sequence of human FcRn (human) (chain, as listed by the source limits assumed, chain 1 of 2): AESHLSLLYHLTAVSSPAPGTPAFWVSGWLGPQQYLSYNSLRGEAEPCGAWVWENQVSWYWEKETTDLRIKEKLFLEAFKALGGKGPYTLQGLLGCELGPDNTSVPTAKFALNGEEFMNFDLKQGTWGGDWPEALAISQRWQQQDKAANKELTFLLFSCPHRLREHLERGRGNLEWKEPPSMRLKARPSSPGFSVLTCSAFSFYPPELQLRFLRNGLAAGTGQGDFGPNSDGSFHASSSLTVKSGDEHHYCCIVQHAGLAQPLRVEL
Sequence of human FcRn (human) (P61769 21-119 limits assumed, chain 2 of 2): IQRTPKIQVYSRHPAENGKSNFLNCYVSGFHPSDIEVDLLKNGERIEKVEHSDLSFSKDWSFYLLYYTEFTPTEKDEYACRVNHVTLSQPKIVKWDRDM

Regarding “humanized anti-RSV monoclonal antibody MEDI-524 (from UniProt P01857 1-330)”, the ratio of the human over cynomolgus IgG concentrations at Req50% is 0.9.
